Patent US11752086B2, “Topical formulations and methods” (MYOCEPT INC., priority 2017, dated 2023)

Assay: isoelectric point (pI) as stated
Assay type: physicochemical
Description: For the second study this procedure was modified to include a chromatographic enrichment/purification step over a HiTrap SP-Sepharose cation exchange column (GE Healthcare). Both MCPT-201 and alpha cobratoxin are highly positively charged proteins with a pI of 8.2. They are routinely purified on cation exchange resigns such as SP-Sepharose. The sample buffer in the Franz cell receiving chamber was changed to 50 mM MES-NaOH, 20 mM NaCl, 0.1 mM EDTA, pH 6.0 in order to make samples directly compatible with cation exchange chromatography over SP-Sepharose.

For alpha cobratoxin, which pI is on record?
The pI was 8.2.
